Where two headings read alike, the source gives them in different places.
B1: M7-G1-P4 (bispecific antibody, human IgG1, lambda)
heavy: not shown
light: SSELTQDPAVSVALGQTVRITCQGDSLRSYYASWYQQKPGQAPVLVIYGKNNRPSGIPDRFSGSSSGNTASLTITGAQAEDEADYYCNSRDTPGNKWVFGGGTKVTVIGQPKAAPSVTLFPPSSEELQANKATLVCLVSDFYPGAVTVAWKADGSPVKVGVETTKPSKQSNNKYAASSYLSLTPEQWKSHRSYSCRVTHEGSTVEKTVAPAECS
B2: M57-G1-M1.3 (bispecific antibody, human IgG1, kappa)
heavy: not shown
light: DIQLTQSPSSLSASLGDRVTITCRASQGISSYLAWYQQKPGKAPKLLIYARSTRQSGVPSRFSGSGSGTEFTLTISSLQPEDSATYYCQQYWTWPLTFGGGTKVEIKRTVAAPSVFIFPPSDEQLKSGTASVVCLLNNFYPREAKVQWKVDNALQSGNSQESVTEQDSKDSTYSLSSTLTLSKADYEKHKVYACEVTHQGLSSPVTKSFNRGEC
B3: M57-G1-P6 (bispecific antibody, human IgG1, kappa)
heavy: not shown
light: DIQLTQSPSSLSASLGDRVTITCRASQGISSYLAWYQQKPGKAPKLLIYARSTRQSGVPSRFSGSGSGTEFTLTISSLQPEDSATYYCQQYWTWPLTFGGGTKVEIKRTVAAPSVFIFPPSDEQLKSGTASVVCLLNNFYPREAKVQWKVDNALQSGNSQESVTEQDSKDSTYSLSSTLTLSKADYEKHKVYACEVTHQGLSSPVTKSFNRGEC
B4: M57-G1-C8 (bispecific antibody, human IgG1, kappa)
heavy: not shown
light: DIQLTQSPSSLSASLGDRVTITCRASQGISSYLAWYQQKPGKAPKLLIYARSTRQSGVPSRFSGSGSGTEFTLTISSLQPEDSATYYCQQYWTWPLTFGGGTKVEIKRTVAAPSVFIFPPSDEQLKSGTASVVCLLNNFYPREAKVQWKVDNALQSGNSQESVTEQDSKDSTYSLSSTLTLSKADYEKHKVYACEVTHQGLSSPVTKSFNRGEC
B5: M78-G1-M1.3 (bispecific antibody, human IgG1, kappa)
heavy: not shown
light: DIQMTQSPSSLSASLGDRVTITCRASQGISSYLAWYQQKPGKAPKLLIYASSTRQSGVPSRFSGSGSGTDFTLTISSLQPEDSGTYYCQQYWAFPLTFGGGTKVEIKRTVAAPSVFIFPPSDEQLKSGTASVVCLLNNFYPREAKVQWKVDNALQSGNSQESVTEQDSKDSTYSLSSTLTLSKADYEKHKVYACEVTHQGLSSPVTKSFNRGEC
B6: M78-G1-P6 (bispecific antibody, human IgG1, kappa)
heavy: not shown
light: DIQMTQSPSSLSASLGDRVTITCRASQGISSYLAWYQQKPGKAPKLLIYASSTRQSGVPSRFSGSGSGTDFTLTISSLQPEDSGTYYCQQYWAFPLTFGGGTKVEIKRTVAAPSVFIFPPSDEQLKSGTASVVCLLNNFYPREAKVQWKVDNALQSGNSQESVTEQDSKDSTYSLSSTLTLSKADYEKHKVYACEVTHQGLSSPVTKSFNRGEC
B7: M78-G1-C8 (bispecific antibody, human IgG1, kappa)
heavy: not shown
light: DIQMTQSPSSLSASLGDRVTITCRASQGISSYLAWYQQKPGKAPKLLIYASSTRQSGVPSRFSGSGSGTDFTLTISSLQPEDSGTYYCQQYWAFPLTFGGGTKVEIKRTVAAPSVFIFPPSDEQLKSGTASVVCLLNNFYPREAKVQWKVDNALQSGNSQESVTEQDSKDSTYSLSSTLTLSKADYEKHKVYACEVTHQGLSSPVTKSFNRGEC
B8: P4-G1-P6 (bispecific antibody, human IgG1, kappa)
heavy: not shown
light: DIQMTQSPSSLSASLGDRVTITCRASQGISSYLAWYQQKPGKAPKLLIYAKSTLQSGVPSRFSGSGSGTDFTLTISSLQPEDSATYYCQQYWTFPLTFGGGTKVEIKRTVAAPSVFIFPPSDEQLKSGTASVVCLLNNFYPREAKVQWKVDNALQSGNSQESVTEQDSKDSTYSLSSTLTLSKADYEKHKVYACEVTHQGLSSPVTKSFNRGEC
B9: B60-G1-M57 (bispecific antibody, human IgG1, lambda)
heavy: not shown
light: SSELTQDPAVSVALGQTVRITCQGDSLRSYYASWYQQKPGQAPVLVIYGKNNRPSGIPDRFSGSSSGNTASLTITGAQAEDEADYYCNSRDWPGNQWVFGGGTKVTVLGQPKAAPSVTLFPPSSEELQANKATLVCLVSDFYPGAVTVAWKADGSPVKVGVETTKPSKQSNNKYAASSYLSLTPEQWKSHRSYSCRVTHEGSTVEKTVAPAECS

Tests used:
Assay in all cases: cell-based or functional assay
[1] = target: T1, ErbB3 (HER3), endogenous on human tumor cell lines (human, UniProt P21860 20-1342)
T1 sequence (P21860 20-1342 limits assumed): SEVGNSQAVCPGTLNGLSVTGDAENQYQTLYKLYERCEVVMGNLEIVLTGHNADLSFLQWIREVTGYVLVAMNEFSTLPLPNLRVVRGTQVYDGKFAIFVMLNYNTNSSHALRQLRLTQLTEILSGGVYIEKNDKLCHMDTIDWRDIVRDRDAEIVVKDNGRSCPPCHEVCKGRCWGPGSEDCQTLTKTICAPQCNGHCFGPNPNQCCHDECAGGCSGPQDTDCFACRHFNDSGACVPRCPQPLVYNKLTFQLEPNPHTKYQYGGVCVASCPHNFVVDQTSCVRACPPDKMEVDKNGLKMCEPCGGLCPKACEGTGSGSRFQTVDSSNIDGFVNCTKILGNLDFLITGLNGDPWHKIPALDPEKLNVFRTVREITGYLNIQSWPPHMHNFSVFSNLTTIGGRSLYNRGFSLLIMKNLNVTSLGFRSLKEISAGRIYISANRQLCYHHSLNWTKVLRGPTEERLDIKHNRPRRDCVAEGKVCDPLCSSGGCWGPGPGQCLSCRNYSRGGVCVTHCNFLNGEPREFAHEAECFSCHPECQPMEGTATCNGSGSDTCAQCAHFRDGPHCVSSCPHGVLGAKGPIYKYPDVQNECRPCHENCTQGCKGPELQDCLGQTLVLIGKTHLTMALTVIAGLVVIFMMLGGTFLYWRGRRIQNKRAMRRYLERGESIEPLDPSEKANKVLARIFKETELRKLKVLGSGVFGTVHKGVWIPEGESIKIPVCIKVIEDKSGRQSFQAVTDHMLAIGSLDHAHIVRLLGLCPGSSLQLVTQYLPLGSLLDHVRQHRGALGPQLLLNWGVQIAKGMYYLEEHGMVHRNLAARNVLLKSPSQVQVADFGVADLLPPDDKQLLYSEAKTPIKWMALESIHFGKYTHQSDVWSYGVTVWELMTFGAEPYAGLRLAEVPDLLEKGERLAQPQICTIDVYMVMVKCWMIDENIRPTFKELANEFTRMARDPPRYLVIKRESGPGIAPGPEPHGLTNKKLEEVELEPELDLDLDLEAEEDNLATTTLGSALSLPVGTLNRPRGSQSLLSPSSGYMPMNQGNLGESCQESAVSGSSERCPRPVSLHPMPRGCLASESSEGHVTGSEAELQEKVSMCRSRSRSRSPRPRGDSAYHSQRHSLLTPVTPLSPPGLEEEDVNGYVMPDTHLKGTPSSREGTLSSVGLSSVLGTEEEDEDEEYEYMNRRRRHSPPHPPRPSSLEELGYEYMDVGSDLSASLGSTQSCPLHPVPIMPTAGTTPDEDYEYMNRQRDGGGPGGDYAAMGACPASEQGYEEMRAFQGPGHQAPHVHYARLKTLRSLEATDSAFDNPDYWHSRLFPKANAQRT

[2] = target: T2, IGF-1R (receptor for insulin-like growth factor 1), endogenous on human tumor cell lines (human, UniProt P08069 31-1367)
T2 sequence (P08069 31-1367): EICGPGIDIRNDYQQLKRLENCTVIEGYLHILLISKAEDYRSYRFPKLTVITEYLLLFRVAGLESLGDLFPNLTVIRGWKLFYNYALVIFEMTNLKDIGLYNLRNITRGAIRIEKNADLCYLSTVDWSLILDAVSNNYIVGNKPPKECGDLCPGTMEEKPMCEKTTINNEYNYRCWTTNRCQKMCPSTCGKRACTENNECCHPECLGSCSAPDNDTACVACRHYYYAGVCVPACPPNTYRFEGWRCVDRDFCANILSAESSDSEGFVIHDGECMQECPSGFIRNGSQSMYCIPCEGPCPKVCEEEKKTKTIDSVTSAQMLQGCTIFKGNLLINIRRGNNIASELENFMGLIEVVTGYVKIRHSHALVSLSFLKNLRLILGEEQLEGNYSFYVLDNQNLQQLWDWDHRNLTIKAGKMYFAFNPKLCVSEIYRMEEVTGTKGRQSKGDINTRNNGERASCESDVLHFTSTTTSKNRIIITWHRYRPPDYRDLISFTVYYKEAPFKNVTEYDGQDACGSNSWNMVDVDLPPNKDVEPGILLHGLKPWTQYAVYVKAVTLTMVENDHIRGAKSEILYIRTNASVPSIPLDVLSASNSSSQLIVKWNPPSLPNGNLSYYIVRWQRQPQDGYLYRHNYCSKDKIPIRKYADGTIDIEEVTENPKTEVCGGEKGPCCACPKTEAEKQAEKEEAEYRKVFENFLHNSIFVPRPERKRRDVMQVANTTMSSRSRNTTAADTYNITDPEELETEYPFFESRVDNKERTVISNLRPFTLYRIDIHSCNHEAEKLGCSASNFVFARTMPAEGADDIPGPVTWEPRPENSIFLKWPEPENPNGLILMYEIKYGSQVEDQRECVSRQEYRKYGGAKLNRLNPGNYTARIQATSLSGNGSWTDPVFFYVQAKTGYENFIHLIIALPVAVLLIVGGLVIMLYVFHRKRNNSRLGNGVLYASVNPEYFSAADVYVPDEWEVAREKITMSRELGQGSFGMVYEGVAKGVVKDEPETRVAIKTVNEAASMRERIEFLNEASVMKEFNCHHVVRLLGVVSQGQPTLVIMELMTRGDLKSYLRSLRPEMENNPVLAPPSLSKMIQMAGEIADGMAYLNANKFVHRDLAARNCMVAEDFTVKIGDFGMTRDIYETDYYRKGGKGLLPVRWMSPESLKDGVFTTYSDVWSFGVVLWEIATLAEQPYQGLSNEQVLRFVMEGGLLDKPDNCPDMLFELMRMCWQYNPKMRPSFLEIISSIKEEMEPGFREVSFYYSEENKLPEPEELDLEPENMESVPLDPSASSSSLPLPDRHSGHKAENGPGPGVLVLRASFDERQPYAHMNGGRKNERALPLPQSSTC

[3] = target: T1, ErbB3 (HER3), endogenous on human tumor …; remark: listed apart in the source
[4] = target: T2, IGF-1R (receptor for insulin-like …); remark: listed apart in the source

Binder | pErbB3 IC50 (BxPC-3) [1] | pIGF1R IC50 (BxPC-3) [2] | pErbB3 % Inhibition (BxPC-3) [3] [%] | pErbB3 IC50 (BxPC-3) [3] | pIGF1R % Inhibition (BxPC-3) [4] [%] | pIGF1R IC50 (BxPC-3) [4]
B1 | 2.4e-11 M (inferred) | 2.4e-09 M (inferred) | 109 | 2.4e-11 M (inferred) | 93 | 2.4e-09 M (inferred)
B2 |  |  | 99 | 1.4e-10 M (inferred) | 94 | 4.1e-10 M (inferred)
B3 |  |  | 98 | 7.9e-11 M (inferred) | 92 | 2.5e-10 M (inferred)
B4 |  |  | 98 | 6.5e-11 M (inferred) | 93 | 2.5e-10 M (inferred)
B5 |  |  | 99 | 1.4e-10 M (inferred) | 97 | 5e-10 M (inferred)
B6 |  |  | 100 | 1.4e-10 M (inferred) | 95 | 4.2e-10 M (inferred)
B7 |  |  | 98 | 2.3e-10 M (inferred) | 96 | 6.8e-10 M (inferred)
B8 |  |  | 95 | 3.9e-11 M (inferred) | 91 | 1.6e-10 M (inferred)
B9 | 2.3e-11 M (inferred) | 4.4e-09 M (inferred) | 162 | 1.2e-09 M (inferred) | 85 | 1e-08 M (inferred)
